Source: publication PMC4264689, “Oligomerization, Conformational Stability and Thermal Unfolding of Harpin, HrpZPss and Its Hypersensitive Response-Inducing C-Terminal Fragment, C-214-HrpZPss” (PLoS ONE, 2014)

B1: HrpZPss (harpin HrpZ from Pseudomonas syringae pv. syringae), full length (natural protein)
chain: MQSLSLNSSSLQTPAMALVLVRPEAETTGSTSSKALQEVVVKLAEELMRNGQLDDSSPLGKLLAKSMAADGKAGGGIEDVIAALDKLIHEKLGDNFGASADSASGTGQQDLMTQVLNGLAKSMLDDLLTKQDGGTSFSEDDMPMLNKIAQFMDDNPAQFPKPDSGSWVNELKEDNFLDGDETAAFRSALDIIGQQLGNQQSDAGSLAGTGGGLGTPSSFSNNSSVMGDPLIDANTGPGDSGNTRGEAGQLIGELIDRGLQSVLAGGGLGTPVNTPQTGTSANGGQSAQDLDQLLGGLLLKGLEATLKDAGQTGTDVQSSAAQIATLLVSTLLQGTRNQAAA
notes: Harpin HrpZ of Pseudomonas syringae pv. syringae, 34.7 kDa, 341 amino acids, full length; Forms polydisperse oligomers; the number of copies is not defined; also called full length HrpZPss; native HrpZPss; source: expressed and purified as described earlier [15]
B2: C-214-HrpZPss (C-terminal fragment of HrpZPss with 214 amino acids) (domain or fragment)
chain: LTKQDGGTSFSEDDMPMLNKIAQFMDDNPAQFPKPDSGSWVNELKEDNFLDGDETAAFRSALDIIGQQLGNQQSDAGSLAGTGGGLGTPSSFSNNSSVMGDPLIDANTGPGDSGNTRGEAGQLIGELIDRGLQSVLAGGGLGTPVNTPQTGTSANGGQSAQDLDQLLGGLLLKGLEATLKDAGQTGTDVQSSAAQIATLLVSTLLQGTRNQAAA
notes: Harpin HrpZ of Pseudomonas syringae pv. syringae, C-terminal 214 residues (N-terminal 127 amino acids deleted); Cloned under the NdeI and EcoRI sites of pET 28a, which probably adds an N-terminal His6 tag with a thrombin site; Forms polydisperse oligomers; the number of copies is not defined; also called C-terminal 214 residues of HrpZPss; source: E. coli BL21 (DE3), pET 28a, purified (Ni-NTA, …)

Biological target: the molecule itself
Experiment: native gel or EMSA; native PAGE of the purified proteins in solution; multiple bands / broad smear taken as polydisperse oligomers; gel conditions not given

| Protein | binding result |
| --- | --- |
| B1 | binds |
| B2 | binds |
